Measured values taken from patent US20140087995A1 (published 2014).
Numbered stars: 1 amine (or outer) side, 2 acyl side, 3 side chain; on linkers, the order of the positions; unused ones are H or OH. Bridge positions count the residues as written; N and C are the ends. Side chains are listed from the residue outwards. Ends that are not written are not given here. * marks the point of attachment. C20 diacid = O=C(O)CCCCCCCCCCCCCCCCCCC(=O)*; C18 diacid = O=C(O)CCCCCCCCCCCCCCCCC(=O)*; C16 diacid = O=C(O)CCCCCCCCCCCCCCC(=O)*; γGlu = O=C(O)[C@H](CCC(=O)[*:2])N[*:1]; AEEA = NCCOCCOCC(=O)O

T1: human amylin receptor (human, UniProt P30988 25-474; O60896 24-148, limits assumed)
T1 construct: whole, on cells; Calcitonin receptor plus RAMP-3 gives the amylin 3(a) receptor; membranes of Amylin 3(a)/CRE-luc cells were used; also called hAmylin-R; hAmylinR
T1 sequence (looked up) 1: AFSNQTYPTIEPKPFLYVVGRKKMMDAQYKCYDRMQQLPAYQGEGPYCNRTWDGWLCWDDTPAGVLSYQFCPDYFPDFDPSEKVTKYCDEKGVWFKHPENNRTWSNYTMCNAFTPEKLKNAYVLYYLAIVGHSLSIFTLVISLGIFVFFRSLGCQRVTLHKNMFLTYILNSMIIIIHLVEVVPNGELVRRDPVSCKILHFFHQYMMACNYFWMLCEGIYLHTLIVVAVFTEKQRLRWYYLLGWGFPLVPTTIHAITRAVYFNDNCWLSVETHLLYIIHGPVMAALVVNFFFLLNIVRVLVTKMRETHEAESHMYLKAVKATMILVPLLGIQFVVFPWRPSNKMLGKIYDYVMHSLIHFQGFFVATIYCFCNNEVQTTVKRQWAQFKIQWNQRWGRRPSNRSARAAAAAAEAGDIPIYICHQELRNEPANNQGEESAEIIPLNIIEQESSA
T1 sequence (looked up) 2: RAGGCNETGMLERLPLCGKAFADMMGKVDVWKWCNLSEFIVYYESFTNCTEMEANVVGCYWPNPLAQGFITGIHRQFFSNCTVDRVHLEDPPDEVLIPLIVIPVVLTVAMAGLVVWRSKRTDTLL

B1: N^ε1-[2-[2-[2-[[(4S)-4-carboxy-4-(19-carboxynonadecanoylamino)butanoyl]amino]ethoxy]ethoxy]acetyl]-[His14,Arg17,Pro21,Pro27]-h-amylin (peptide)
peptide: K([AEEA-γGlu-C20 diacid])CNTATCATQRLAHFLRHSSPNFGAIPSSTNVGSNTY-NH2
modifications: disulfide 2-7; N-terminus assumed
SMILES: CC[C@H](C)[C@H](NC(=O)[C@H](C)NC(=O)CNC(=O)[C@H](Cc1ccccc1)NC(=O)[C@H](CC(N)=O)NC(=O)[C@@H]1CCCN1C(=O)[C@H](CO)NC(=O)[C@H](CO)NC(=O)[C@H](Cc1c[nH]cn1)NC(=O)[C@H](CCCNC(=N)N)NC(=O)[C@H](CC(C)C)NC(=O)[C@H](Cc1ccccc1)NC(=O)[C@H](Cc1c[nH]cn1)NC(=O)[C@H](C)NC(=O)[C@H](CC(C)C)NC(=O)[C@H](CCCNC(=N)N)NC(=O)[C@H](CCC(N)=O)NC(=O)[C@@H](NC(=O)[C@H](C)NC(=O)[C@@H]1CSSC[C@H](NC(=O)[C@@H](N)CCCCNC(=O)COCCOCCNC(=O)CC[C@H](NC(=O)CCCCCCCCCCCCCCCCCCC(=O)O)C(=O)O)C(=O)N[C@@H](CC(N)=O)C(=O)N[C@@H]([C@@H](C)O)C(=O)N[C@@H](C)C(=O)N[C@@H]([C@@H](C)O)C(=O)N1)[C@@H](C)O)C(=O)N1CCC[C@H]1C(=O)N[C@@H](CO)C(=O)N[C@@H](CO)C(=O)N[C@H](C(=O)N[C@@H](CC(N)=O)C(=O)N[C@H](C(=O)NCC(=O)N[C@@H](CO)C(=O)N[C@@H](CC(N)=O)C(=O)N[C@H](C(=O)N[C@@H](Cc1ccc(O)cc1)C(N)=O)[C@@H](C)O)C(C)C)[C@@H](C)O
notes: also called 14H, 17R, 21P, 27P
B2: N^ε1-[2-[2-[2-[[(4S)-4-carboxy-4-(19-carboxynonadecanoylamino)butanoyl]amino]ethoxy]ethoxy]acetyl]-[Lys14,Arg17,Pro21,Pro27,Pro31]-h-amylin (peptide)
peptide: K([AEEA-γGlu-C20 diacid])CNTATCATQRLAKFLRHSSPNFGAIPSSTPVGSNTY-NH2
modifications: disulfide 2-7; N-terminus assumed
SMILES: CC[C@H](C)[C@H](NC(=O)[C@H](C)NC(=O)CNC(=O)[C@H](Cc1ccccc1)NC(=O)[C@H](CC(N)=O)NC(=O)[C@@H]1CCCN1C(=O)[C@H](CO)NC(=O)[C@H](CO)NC(=O)[C@H](Cc1c[nH]cn1)NC(=O)[C@H](CCCNC(=N)N)NC(=O)[C@H](CC(C)C)NC(=O)[C@H](Cc1ccccc1)NC(=O)[C@H](CCCCN)NC(=O)[C@H](C)NC(=O)[C@H](CC(C)C)NC(=O)[C@H](CCCNC(=N)N)NC(=O)[C@H](CCC(N)=O)NC(=O)[C@@H](NC(=O)[C@H](C)NC(=O)[C@@H]1CSSC[C@H](NC(=O)[C@@H](N)CCCCNC(=O)COCCOCCNC(=O)CC[C@H](NC(=O)CCCCCCCCCCCCCCCCCCC(=O)O)C(=O)O)C(=O)N[C@@H](CC(N)=O)C(=O)N[C@@H]([C@@H](C)O)C(=O)N[C@@H](C)C(=O)N[C@@H]([C@@H](C)O)C(=O)N1)[C@@H](C)O)C(=O)N1CCC[C@H]1C(=O)N[C@@H](CO)C(=O)N[C@@H](CO)C(=O)N[C@H](C(=O)N1CCC[C@H]1C(=O)N[C@H](C(=O)NCC(=O)N[C@@H](CO)C(=O)N[C@@H](CC(N)=O)C(=O)N[C@H](C(=O)N[C@@H](Cc1ccc(O)cc1)C(N)=O)[C@@H](C)O)C(C)C)[C@@H](C)O
notes: also called 14K, 17R, 21P, 27P, 31P
B3: N^ε1-[2-[2-[2-[[(4S)-4-carboxy-4-(19-carboxynonadecanoylamino)butanoyl]amino]ethoxy]ethoxy]acetyl]-[Ser14,Arg17,Pro21,Pro27,Pro31]-h-amylin (peptide)
peptide: K([AEEA-γGlu-C20 diacid])CNTATCATQRLASFLRHSSPNFGAIPSSTPVGSNTY-NH2
modifications: disulfide 2-7; N-terminus assumed
SMILES: CC[C@H](C)[C@H](NC(=O)[C@H](C)NC(=O)CNC(=O)[C@H](Cc1ccccc1)NC(=O)[C@H](CC(N)=O)NC(=O)[C@@H]1CCCN1C(=O)[C@H](CO)NC(=O)[C@H](CO)NC(=O)[C@H](Cc1c[nH]cn1)NC(=O)[C@H](CCCNC(=N)N)NC(=O)[C@H](CC(C)C)NC(=O)[C@H](Cc1ccccc1)NC(=O)[C@H](CO)NC(=O)[C@H](C)NC(=O)[C@H](CC(C)C)NC(=O)[C@H](CCCNC(=N)N)NC(=O)[C@H](CCC(N)=O)NC(=O)[C@@H](NC(=O)[C@H](C)NC(=O)[C@@H]1CSSC[C@H](NC(=O)[C@@H](N)CCCCNC(=O)COCCOCCNC(=O)CC[C@H](NC(=O)CCCCCCCCCCCCCCCCCCC(=O)O)C(=O)O)C(=O)N[C@@H](CC(N)=O)C(=O)N[C@@H]([C@@H](C)O)C(=O)N[C@@H](C)C(=O)N[C@@H]([C@@H](C)O)C(=O)N1)[C@@H](C)O)C(=O)N1CCC[C@H]1C(=O)N[C@@H](CO)C(=O)N[C@@H](CO)C(=O)N[C@H](C(=O)N1CCC[C@H]1C(=O)N[C@H](C(=O)NCC(=O)N[C@@H](CO)C(=O)N[C@@H](CC(N)=O)C(=O)N[C@H](C(=O)N[C@@H](Cc1ccc(O)cc1)C(N)=O)[C@@H](C)O)C(C)C)[C@@H](C)O
notes: also called 14S, 17R, 21P, 27P, 31P
B4: N^ε1-[2-[2-[2-[[(4S)-4-carboxy-4-(19-carboxynonadecanoylamino)butanoyl]amino]ethoxy]ethoxy]acetyl]-[Thr14,Arg17,Pro21,Pro27,Pro31]-h-amylin (peptide)
peptide: K([AEEA-γGlu-C20 diacid])CNTATCATQRLATFLRHSSPNFGAIPSSTPVGSNTY-NH2
modifications: disulfide 2-7; N-terminus assumed
SMILES: CC[C@H](C)[C@H](NC(=O)[C@H](C)NC(=O)CNC(=O)[C@H](Cc1ccccc1)NC(=O)[C@H](CC(N)=O)NC(=O)[C@@H]1CCCN1C(=O)[C@H](CO)NC(=O)[C@H](CO)NC(=O)[C@H](Cc1c[nH]cn1)NC(=O)[C@H](CCCNC(=N)N)NC(=O)[C@H](CC(C)C)NC(=O)[C@H](Cc1ccccc1)NC(=O)[C@@H](NC(=O)[C@H](C)NC(=O)[C@H](CC(C)C)NC(=O)[C@H](CCCNC(=N)N)NC(=O)[C@H](CCC(N)=O)NC(=O)[C@@H](NC(=O)[C@H](C)NC(=O)[C@@H]1CSSC[C@H](NC(=O)[C@@H](N)CCCCNC(=O)COCCOCCNC(=O)CC[C@H](NC(=O)CCCCCCCCCCCCCCCCCCC(=O)O)C(=O)O)C(=O)N[C@@H](CC(N)=O)C(=O)N[C@@H]([C@@H](C)O)C(=O)N[C@@H](C)C(=O)N[C@@H]([C@@H](C)O)C(=O)N1)[C@@H](C)O)[C@@H](C)O)C(=O)N1CCC[C@H]1C(=O)N[C@@H](CO)C(=O)N[C@@H](CO)C(=O)N[C@H](C(=O)N1CCC[C@H]1C(=O)N[C@H](C(=O)NCC(=O)N[C@@H](CO)C(=O)N[C@@H](CC(N)=O)C(=O)N[C@H](C(=O)N[C@@H](Cc1ccc(O)cc1)C(N)=O)[C@@H](C)O)C(C)C)[C@@H](C)O
notes: also called 14T, 17R, 21P, 27P, 31P
B5: N^ε1-[(4S)-4-carboxy-4-(15-carboxypentadecanoylamino)butanoyl]-[Arg17,Pro21,Pro27,His34]-h-amylin (peptide)
peptide: K([γGlu-C16 diacid])CNTATCATQRLANFLRHSSPNFGAIPSSTNVGHNTY-NH2
modifications: disulfide 2-7; N-terminus assumed
SMILES: CC[C@H](C)[C@H](NC(=O)[C@H](C)NC(=O)CNC(=O)[C@H](Cc1ccccc1)NC(=O)[C@H](CC(N)=O)NC(=O)[C@@H]1CCCN1C(=O)[C@H](CO)NC(=O)[C@H](CO)NC(=O)[C@H](Cc1c[nH]cn1)NC(=O)[C@H](CCCNC(=N)N)NC(=O)[C@H](CC(C)C)NC(=O)[C@H](Cc1ccccc1)NC(=O)[C@H](CC(N)=O)NC(=O)[C@H](C)NC(=O)[C@H](CC(C)C)NC(=O)[C@H](CCCNC(=N)N)NC(=O)[C@H](CCC(N)=O)NC(=O)[C@@H](NC(=O)[C@H](C)NC(=O)[C@@H]1CSSC[C@H](NC(=O)[C@@H](N)CCCCNC(=O)CC[C@H](NC(=O)CCCCCCCCCCCCCCC(=O)O)C(=O)O)C(=O)N[C@@H](CC(N)=O)C(=O)N[C@@H]([C@@H](C)O)C(=O)N[C@@H](C)C(=O)N[C@@H]([C@@H](C)O)C(=O)N1)[C@@H](C)O)C(=O)N1CCC[C@H]1C(=O)N[C@@H](CO)C(=O)N[C@@H](CO)C(=O)N[C@H](C(=O)N[C@@H](CC(N)=O)C(=O)N[C@H](C(=O)NCC(=O)N[C@@H](Cc1c[nH]cn1)C(=O)N[C@@H](CC(N)=O)C(=O)N[C@H](C(=O)N[C@@H](Cc1ccc(O)cc1)C(N)=O)[C@@H](C)O)C(C)C)[C@@H](C)O
notes: also called 17R, 21P, 27P, 34H
B6: N^ε1-[(4S)-4-carboxy-4-(17-carboxyheptadecanoylamino)butanoyl]-[Arg17,Pro21,Pro27,His34]-h-amylin (peptide)
peptide: K([γGlu-C18 diacid])CNTATCATQRLANFLRHSSPNFGAIPSSTNVGHNTY-NH2
modifications: disulfide 2-7; N-terminus assumed
SMILES: CC[C@H](C)[C@H](NC(=O)[C@H](C)NC(=O)CNC(=O)[C@H](Cc1ccccc1)NC(=O)[C@H](CC(N)=O)NC(=O)[C@@H]1CCCN1C(=O)[C@H](CO)NC(=O)[C@H](CO)NC(=O)[C@H](Cc1c[nH]cn1)NC(=O)[C@H](CCCNC(=N)N)NC(=O)[C@H](CC(C)C)NC(=O)[C@H](Cc1ccccc1)NC(=O)[C@H](CC(N)=O)NC(=O)[C@H](C)NC(=O)[C@H](CC(C)C)NC(=O)[C@H](CCCNC(=N)N)NC(=O)[C@H](CCC(N)=O)NC(=O)[C@@H](NC(=O)[C@H](C)NC(=O)[C@@H]1CSSC[C@H](NC(=O)[C@@H](N)CCCCNC(=O)CC[C@H](NC(=O)CCCCCCCCCCCCCCCCC(=O)O)C(=O)O)C(=O)N[C@@H](CC(N)=O)C(=O)N[C@@H]([C@@H](C)O)C(=O)N[C@@H](C)C(=O)N[C@@H]([C@@H](C)O)C(=O)N1)[C@@H](C)O)C(=O)N1CCC[C@H]1C(=O)N[C@@H](CO)C(=O)N[C@@H](CO)C(=O)N[C@H](C(=O)N[C@@H](CC(N)=O)C(=O)N[C@H](C(=O)NCC(=O)N[C@@H](Cc1c[nH]cn1)C(=O)N[C@@H](CC(N)=O)C(=O)N[C@H](C(=O)N[C@@H](Cc1ccc(O)cc1)C(N)=O)[C@@H](C)O)C(C)C)[C@@H](C)O
notes: as for B5

These binders were tested against T1, human amylin receptor (assay: SPA competition binding, displacement of 125I-rat amylin from membranes with human amylin 3(a) receptor (Assay V)).
How it was run: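 Cell membranes were prepared by homogenisation in Na-HEPES/EDTA buffer, pH 7.4, and stored at −80° C. They were then coupled to SPA beads at 35 ng/μL final and exposed to compounds in assay buffer containing CaCl2, MgCl₂, OA and Tween20. After 120 min at 25° C, plates were counted and IC₅₀ derived.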

Point of comparison: B6, IC50 0.382 nM. Against it:
- B1 — 2.9-fold lower, 0.133 nM
- B2 — 2.1-fold higher, 0.791 nM
- B3 — 3.7-fold lower, 0.104 nM
- B4 — 1.7-fold higher, 0.666 nM
- B5 — 1.5-fold higher, 0.58 nM
